The source of these data is the supplement of paper PMC10567573.

± gives the standard deviation.

The nature of the data set: protein stability index of a GFP-peptide fusion (GPS, HEK-293T) (PSI 1-6); higher = more stable.
[1] abbreviates: treatment: DMSO, c terminus: native.
Where [2] appears, read: treatment: MLN4924 1 uM, 8 h, c terminus: native.
The mark [3] stands for this setting: treatment: DMSO, c terminus: a fixed tail appended.
[4] abbreviates: treatment: MLN4924 1 uM, 8 h, c terminus: a fixed tail appended.
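Further: 24-mer peptide tiles fused after GFP, lentivirally expressed, FACS-sorted into six equal bins by GFP/DsRed ratio, decoded by Illumina sequencing, PSI is the read-weighted mean bin number.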

Consider NWFMSFGPEIKLNTSQQGRNQAV [FAM104B], for which the protein stability index under setting [1] was 2.12 ± 0.49 and the protein stability index under setting [2] was determined as 2.73 ± 1.

For NWLQVSFTAKHANKVKVLDAPVPD [FSD1], the protein stability index came out at 3.02 ± 0.15 under setting [3] and 2.91 ± 0.19 under setting [4].

In the case of NWPARQRGTHAVVGVATARAPLHS [SPSB4], the protein stability index by setting is: under setting [3], 3.52 ± 0.19; under setting [4], 3.57 ± 0.27.

Turning to PAAKPDPDGGRADEWACELRLFGR [P3H4], the protein stability index runs as follows: under setting [3], 3.47 ± 0.23; under setting [4], 3.36 ± 0.33.

Turning to PAPEAAHTTGPTGSAPNSPMALLT [TFE3], the protein stability index by setting is: under setting [3], 4.67 ± 0.12; under setting [4], 4.67 ± 0.16.

Take PAPTPTPPGRLGAPYSEAWGYFHL [ZBED3]: the protein stability index is 2.37 ± 0.27 under setting [3] and 2.23 ± 0.6 under setting [4].

Take PASQHSTPAGLPPSRAKPPTEGAG [FBF1]: the protein stability index was found to be 5.39 ± 0.3 under setting [3] and 5.293 ± 0.028 under setting [4].

On to PCGKYNAMVLELLGPSLEDLFDLC [CSNK1G1], for which the protein stability index reads like this: under setting [3], 2.69 ± 1.2; under setting [4], 2.21 ± 0.5.

In turn, PDLTQAPSSLMETLEQHLNTLEGK [SNAP91] came in with a protein stability index under setting [3] of 4.77 ± 0.35 and a protein stability index under setting [4] of 5.08 ± 0.21.

On to PDVIPLPHIYGARIKGVEVFCPLD [FAM189A2], for which the protein stability index turned out to be 2.55 ± 0.25 under setting [3] and 2.64 ± 0.14 under setting [4].

For PEGHVLRSDGKTCAKLDSCALGDH [MATN2], the protein stability index under setting [3] was 4.79 ± 0.13 and the protein stability index under setting [4] was found to be 4.72 ± 0.21.

Take PELKSLAKTFHLVNPNGQKQQLVD [FAN1]: the protein stability index is 4.05 ± 0.07 under setting [3] and 4.2 ± 0.22 under setting [4].

Take PGGGAGMAAGFPYALRAYLGYQAV [CEBPB]: the protein stability index by setting is: under setting [3], 2.71 ± 0.77; under setting [4], 2.72 ± 0.41.

For the sequence PGGNLIVELARYLVDVRQEQLQGF [DNAAF3], the protein stability index is, setting by setting: under setting [3], 2.9 ± 0.56; under setting [4], 2.39 ± 0.14.

For PGGRPEVIYNYVQRPFIRMSWEKE [BTBD10], the protein stability index was determined as 3.06 ± 0.41 under setting [3] and 3.21 ± 0.43 under setting [4].

PGLLGSMALSNHYRSEDLLDVDTA [FBXO3]: the protein stability index runs as follows: under setting [3], 4.24 ± 0.097; under setting [4], 4.32 ± 0.24.

Consider PHQTSKMENLPGLASGPGKYMPHL, for which the protein stability index under setting [3] is 3.44 ± 0.23 and the protein stability index under setting [4] amounted to 3.65 ± 0.076.

Take PIDFEESRFYEIHARARDQGQPAM [PCDHGC5]: the protein stability index came out at 4.3 ± 0.2 under setting [3] and 4.38 ± 0.21 under setting [4].

In the case of PILAPRIFGSNKWTTEQQQRFHEI [ARL6IP1], the protein stability index under setting [3] amounted to 3.07 ± 0.25 and the protein stability index under setting [4] was determined as 3 ± 0.22.

For the sequence PKETQPFPKSEQVYLHFLSVVTED [ZNF232], the protein stability index under setting [3] came to 2.69 ± 0.24 and the protein stability index under setting [4] turned out to be 2.99 ± 0.28.

Turning to PKTQACSGSESPSDSGKDLPEPSK [MYCL], the protein stability index stood at 5.36 ± 0.23 under setting [3] and 5.63 ± 0.25 under setting [4].

As to PLDFEAYSAAALQEAMKRLRGAKA [FCHO1], the protein stability index is, setting by setting: under setting [3], 3.46 ± 0.25; under setting [4], 3.62 ± 0.29.

Take PLLPAPPKTPMDGADCGIQWWNAV [LYSMD4]: the protein stability index by setting is: under setting [3], 3.48 ± 0.42; under setting [4], 3.62 ± 0.21.

PLLRWVLTLSFLVATVAVGLYAM [HMOX1]: the protein stability index runs as follows: under setting [1], 2.86 ± 0.15; under setting [2], 2.57 ± 0.31.

For the sequence PLLSASVTGHTNIVDFLTHHAQTS [FEM1C], the protein stability index stood at 3.11 ± 0.27 under setting [3] and 3.11 ± 0.23 under setting [4].

Sequence PMKSAPVMLTLSDSKHVVLPVDDD [RBBP5] registered a protein stability index under setting [3] of 5.08 ± 0.12 and a protein stability index under setting [4] of 5.07 ± 0.08.

Regarding PMQERRASFYACRLDKHLYVIGGR [KLHL14], the protein stability index reads like this: under setting [3], 2.15 ± 0.49; under setting [4], 2.23 ± 0.28.

As to PPCAWACPVPAHRRGSWRLPYTDG [CTBP1-DT], the protein stability index under setting [3] was found to be 2.92 ± 0.23 and the protein stability index under setting [4] came to 2.93 ± 0.17.

As to PPDLGAQRRHGWNPKDCSENIEVK [SPSB2], the protein stability index stood at 4.84 ± 0.29 under setting [3] and 5.03 ± 0.14 under setting [4].

Take PPPPPPSRGGPPPPPPPPHNSGPP [WASL]: the protein stability index was found to be 5.28 ± 0.17 under setting [3] and 5.3 ± 0.2 under setting [4].

Take PQKASPNGSISSAGNSSRNSSQSS [BTBD10]: the protein stability index runs as follows: under setting [3], 5.04 ± 0.24; under setting [4], 4.96 ± 0.13.

As for PQTHSNRIYRMIKLGLGIDEDEVA [HSP90AB1], the protein stability index by setting is: under setting [3], 3.25 ± 0.4; under setting [4], 3.49 ± 0.31.

Consider PRAAHACATVGNRGFVFGGRYRDA [KLHDC2], for which the protein stability index reads like this: under setting [3], 2.19 ± 0.19; under setting [4], 2.12 ± 0.14.

Take PRAERKCPRIAPADSGRYRASPTR [ELOA2]: the protein stability index runs as follows: under setting [3], 4.47 ± 0.14; under setting [4], 4.47 ± 0.26.

Regarding PRCDLVDLGEGKICFCCEEFQPAK [FAM189A2], the protein stability index stood at 3.3 ± 0.44 under setting [3] and 3.67 ± 0.49 under setting [4].

With PRLKEDQPWMVIEGIRQTEYTLTG [FSD1], the protein stability index was determined as 3.18 ± 0.34 under setting [3] and 3.12 ± 0.19 under setting [4].

PRLTMHYPCLEKPRIWSLAHTATA [IRX6]: the protein stability index reads like this: under setting [3], 2.31 ± 0.18; under setting [4], 2.5 ± 0.11.

PRSSLAESFFVDYEENEGAGPYLL [ADAMTSL2] gave a protein stability index under setting [3] of 3.91 ± 0.17 and a protein stability index under setting [4] of 3.82 ± 0.17.

Regarding PRTRARLGANEVLLVVGGFGSQQS [KLHL12], the protein stability index by setting is: under setting [3], 2.17 ± 0.12; under setting [4], 1.97 ± 0.58.

Regarding PSAGFRCCAAPGPHVALAVRYNRV [ANKRD9], the protein stability index came to 2.37 ± 0.28 under setting [3] and 2.21 ± 0.34 under setting [4].

Take PSDKVGRADAHLGSSSVALPKEAS [TOR1AIP2]: the protein stability index under setting [3] was found to be 5.23 ± 0.14 and the protein stability index under setting [4] amounted to 5.04 ± 0.091.

Regarding PSGCAIACGGLDNKCSVYPLTFDK [GNB5], the protein stability index was 2.72 ± 0.17 under setting [3] and 2.94 ± 0.36 under setting [4].

With PSGPPPPPPSVLGVGPVAPPPPPP [WASL], the protein stability index is 4.86 ± 0.21 under setting [3] and 4.89 ± 0.18 under setting [4].

In the case of PSLYSSYHQGCLVNPTGNLPMWSN [NANOGP8], the protein stability index runs as follows: under setting [3], 2.39 ± 0.073; under setting [4], 2.37 ± 0.096.

For PSRRSENRVVVSGLPPSGSWQDLK [SRSF1], the protein stability index by setting is: under setting [3], 3.89 ± 0.33; under setting [4], 4.21 ± 0.22.

As for PSRVHGSLEPFRPQQAPQDDGSQD [PWWP2B], the protein stability index by setting is: under setting [3], 5.52 ± 0.21; under setting [4], 5.52 ± 0.22.

For PTVGIGGDRLQFNQLSQAELDELA [EFHC1], the protein stability index reads like this: under setting [3], 5.13 ± 0.23; under setting [4], 5.27 ± 0.15.

For the sequence PVCYQCLEEGKHSSHEVKALGAMW [TRIM9], the protein stability index runs as follows: under setting [3], 2.64 ± 0.35; under setting [4], 2.76 ± 0.32.

For the sequence PVLLLQITVGLVFLCLQYRLRGKL [MOG], the protein stability index was 3.23 ± 0.36 under setting [3] and 3.17 ± 0.25 under setting [4].

As to PVTICCGHSFCRPCLCLSWEEAQS [TRIM43], the protein stability index reads like this: under setting [3], 2.61 ± 0.35; under setting [4], 2.95 ± 0.36.

For the sequence QAEIENKRRQLEDERRQLQHLKSK [PALM], the protein stability index runs as follows: under setting [3], 5.02 ± 0.17; under setting [4], 4.97 ± 0.36.

In the case of QAFRAIDRADYYLEEFKENAYKDL [PCMTD2], the protein stability index came to 3.34 ± 0.15 under setting [3] and 3.17 ± 0.23 under setting [4].

For the sequence QAFRAIDRGDYYLEGYRDNAYKDL [PCMTD1], the protein stability index is, setting by setting: under setting [3], 2.85 ± 0.19; under setting [4], 2.98 ± 0.53.

With QARYHDTPYKPPAGRAAAPELSYR [MYORG], the protein stability index by setting is: under setting [3], 3.69 ± 0.15; under setting [4], 3.85 ± 0.13.

Regarding QATLPVGSPSRPLSRRQLCPLTPG [C2CD2L], the protein stability index under setting [3] is 3.61 ± 0.33 and the protein stability index under setting [4] was found to be 3.74 ± 0.14.

With QCQEAEQARAELTAQHQRRLAAIA [FBF1], the protein stability index is 4.34 ± 0.05 under setting [3] and 4.28 ± 0.15 under setting [4].

Take QDGVLDLSTKKSPCAGSTSLSHSP [LCOR]: the protein stability index is, setting by setting: under setting [3], 4.95 ± 0.14; under setting [4], 4.96 ± 0.2.

QDKPYKCTDCGKSFNHNAHLTVHK [ZNF8]: the protein stability index runs as follows: under setting [3], 3.71 ± 0.27; under setting [4], 3.72 ± 0.41.

Take QDQPSEAATGGATLAQTISEAAIG [HDAC6]: the protein stability index amounted to 5.09 ± 0.23 under setting [3] and 5.35 ± 0.15 under setting [4].

On to QDSKEMKQLLDSKIGFEIGIENEE [ZNF449], for which the protein stability index by setting is: under setting [3], 5.35 ± 0.37; under setting [4], 5.37 ± 0.47.

With QENESLFTFLGKKCVTMSSAVVQL [WASL], the protein stability index reads like this: under setting [3], 2.29 ± 0.34; under setting [4], 2.32 ± 0.039.

Regarding QEPQSPQKLNPGFDLAKGNAGKVN [PLAGL1], the protein stability index by setting is: under setting [3], 5 ± 0.2; under setting [4], 4.89 ± 0.39.

Consider QESKNQVHRRGEYNVYSTFQSHEP [PPP2R2B], for which the protein stability index was determined as 3.72 ± 0.38 under setting [3] and 4.2 ± 0.22 under setting [4].

Take QFQEALEELAKKRFKDKSSEEAVR [TPPP]: the protein stability index is 3.49 ± 0.38 under setting [3] and 3.64 ± 0.39 under setting [4].

Consider QFTMGGPAISMASPMSIPTNTMHY [CARM1], for which the protein stability index runs as follows: under setting [3], 2.54 ± 0.21; under setting [4], 2.68 ± 0.18.

With QGPMSQRRENYGVPPRRATISSWR [RBMY1A1], the protein stability index runs as follows: under setting [3], 3.68 ± 0.22; under setting [4], 3.57 ± 0.36.

As to QGSLSNTYLSKVDPDGKKIKQIQQ [FBXO33], the protein stability index reads like this: under setting [3], 4.28 ± 0.31; under setting [4], 4.34 ± 0.18.

As to QIFANTVDNARIVLQIDNARLAAD [KRT18], the protein stability index turned out to be 2.78 ± 0.28 under setting [3] and 2.75 ± 0.33 under setting [4].

Take QKAVKSCLVCQASFCELHLKPHLE [TRIM29]: the protein stability index by setting is: under setting [3], 3.86 ± 0.19; under setting [4], 3.86 ± 0.25.

As for QKRSRAIHSSDEGEDQAGDEDEDD [WAS], the protein stability index by setting is: under setting [3], 5.69 ± 0.21; under setting [4], 5.57 ± 0.24.

Regarding QLAHMVKEQEETIQRIDENVLGAQ [STX5], the protein stability index reads like this: under setting [3], 4.81 ± 0.45; under setting [4], 4.96 ± 0.21.

Regarding QLTNTSGTVIGVTSCIVIILIIIS [NETO1], the protein stability index reads like this: under setting [3], 2.43 ± 0.27; under setting [4], 2.43 ± 0.28.
